Reference: patent US20140072986, “AMYLOID PROTEIN OLIGOMER-BINDING APTAMER” (NATIONAL UNIVERSITY CORPORATION TOKYO UNIVERSITY OF …, published 2014)

Columns and labels:
[1] = target: T1, amyloid beta 1-40 oligomer (UniProt P05067 P05067:672-711); assay: aptamer blotting, 500 nM; conditions: tags: Peptide Institute peptide; oligomerised from HFIP/water; chain copies: oligomer (stated); label: 5'-FITC; G4
Protocol: (§1) α-synuclein monomer, oligomer, and fibril (1 μg) was immobilized on a nitrocellulose membrane and dried. Then, the membrane was incubated with 4% skim milk prepared using TBS-T (25 mM Tris-HCl, pH 7.4, 0.15 M NaCl, 0.005 M KCl, 0.05% Tween-20) at room temperature for 1 hour for blocking. After that, the membrane was washed with a sufficient amount of TBS-T (2 min×twice and 10 min×one time). The obtained plural oligonucleotides modified with FITC at the 5′ end (f.c. 100 nM) were folded, and the DNA and the membrane were incubated at room temperature for 1 hour. Next, the membrane was washed with a sufficient amount of TBS-T (2 min×twice, 10 min×one time, and 5 min×twice). After that, an HRP-modified anti-FITC antibody diluted to 1000 times with TBS-T and the membrane were incubated at room temperature for 1 hour and the membrane was washed with a sufficient amount of TBS-T (2 min×twice, 10 min×one time, and 5 min×twice). ECL Plus Western blotting detection reagents (GE Healthcare Ltd.) were added to the membrane, and HRP chemiluminescence was detected by TYPHOON 8600 to observe the binding of the DNA to the protein.
Spot intensities of portions with the immobilized α-Syn oligomer were analyzed to create a calibration curve, whereby an oligomer concentration included in the Aβ₁₋₄₀ oligomer sample was roughly estimated. After that, the Aβ₁₋₄₀ oligomer was immobilized on a nitrocellulose membrane in such a manner that the A11 has the same level of spot intensity, and aptamer blotting was performed using 500 nM of each aptamer. As a control, the A11 was used to perform the same experiment.

alpha-synuclein oligomer [2] = target: T2, alpha-synuclein oligomer (UniProt P37840 P37840:1-140); assay: aptamer blotting; did not retain binding of T-SO504
[3] = target: T1, amyloid beta 1-40 oligomer; assay: ELONA; signal from 1 nM versus 10 nM for T-SO530; also strong spot in blotting FIG. 6; conditions: tags: Peptide Institute peptide; oligomerised from HFIP/water; chain copies: oligomer (stated); label: 5'-FITC
Protocol: (§2) 100 μL of 100 μM of an Aβ oligomer solution or PBS buffer was added to each well of MaxiSorp (registered trademark) plate (Nunc Co., Ltd) and incubated at 37° C. for 1.5 hours to immobilize the Aβ oligomer on the wells. Blocking of each well was performed with a 2% (w/v) BSA solution (TBS-T: 25 mM Tris-HCl, pH 7.4, 0.15M NaCl, 0.005M KCl, 0.05% Tween-20) to produce an Aβ oligomer-immobilized plate.
(§3) To each well of the Aβ oligomer-immobilized plate was added the each FITC-labeled aptamer prepared in a concentration of 1 nM, 2.5 nM, or 10 nM, and incubation at room temperature for 60 minutes was carried out. After washing the wells, an HRP-modified anti-FITC antibody (Cosmo BiO Co., Ltd) was added to the wells and incubation was performed at room temperature. After washing the wells, an HRP-luminescent substrate was added to detect the binding of each aptamer to the oligomer by chemiluminescence. FIG. 5 illustrates the results.

C-reactive protein (CRP) = target: T3, C-reactive protein (CRP) (UniProt P02741 P02741:19-224); assay: aptamer blotting, 5 pmol protein; conditions: tags: Polyscience Corp; chain copies: 5; label: 5'-FITC; G4
T3 sequence: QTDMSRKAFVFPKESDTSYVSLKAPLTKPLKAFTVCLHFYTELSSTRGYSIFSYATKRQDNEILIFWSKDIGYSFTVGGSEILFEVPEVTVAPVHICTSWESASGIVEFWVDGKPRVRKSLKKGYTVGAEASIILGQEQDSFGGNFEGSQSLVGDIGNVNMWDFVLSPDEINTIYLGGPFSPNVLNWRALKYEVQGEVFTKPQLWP
Protocol: as §1
(§4) On the same nitrocellulose membrane, 5 pmol of each of glucose dehydrogenase (PQQGDH) dependent on the coenzyme PQQ, a C-reactive protein (CRP) (Polyscience Corp.), luciferase, and an IgG antibody (Sigma Aldrich Company), and 0.5 μg of α-synuclein oligomer were immobilized. Using the membrane, specificity evaluation was performed by an aptamer blotting method.

[4] = target: PQQ-dependent glucose dehydrogenase (PQQGDH) (UniProt P13650 P13650:25-478); assay: aptamer blotting, 5 pmol protein; conditions: label: 5'-FITC; G4
Protocol: as §1, §4

[5] = target: T1, amyloid beta 1-40 oligomer; assay: ELONA; oligomer immobilised on plate, room temp; conditions: tags: Peptide Institute peptide, oligomerised from HFIP/water, chain copies: oligomer (stated), label: 5'-FITC
Protocol: as §2, §3
Further, using the 10T dimer and the original aptamer T-SO530 in a concentration of 1 nM, 2.5 nM, 10 nM, 20 nM, or 60 nM, an experiment for binding the aptamers to the Aβ oligomer was performed in the same manner as above. Based on the obtained binding signals, curve fitting was performed using GraphPad Prism (MDF Co., Ltd.) to calculate a binding dissociation constant (Kd).

alpha-synuclein oligomer [6] = target: T2, alpha-synuclein oligomer; assay: aptamer blotting; binding improved over T-SO504
alpha-synuclein oligomer [7] = target: T2, alpha-synuclein oligomer; assay: aptamer blotting

T1 sequence (P05067 672-711, one chain of several): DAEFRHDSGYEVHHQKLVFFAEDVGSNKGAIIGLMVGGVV
Chain of PQQ-dependent glucose dehydrogenase (PQQGDH) (P13650 25-478, one chain of several): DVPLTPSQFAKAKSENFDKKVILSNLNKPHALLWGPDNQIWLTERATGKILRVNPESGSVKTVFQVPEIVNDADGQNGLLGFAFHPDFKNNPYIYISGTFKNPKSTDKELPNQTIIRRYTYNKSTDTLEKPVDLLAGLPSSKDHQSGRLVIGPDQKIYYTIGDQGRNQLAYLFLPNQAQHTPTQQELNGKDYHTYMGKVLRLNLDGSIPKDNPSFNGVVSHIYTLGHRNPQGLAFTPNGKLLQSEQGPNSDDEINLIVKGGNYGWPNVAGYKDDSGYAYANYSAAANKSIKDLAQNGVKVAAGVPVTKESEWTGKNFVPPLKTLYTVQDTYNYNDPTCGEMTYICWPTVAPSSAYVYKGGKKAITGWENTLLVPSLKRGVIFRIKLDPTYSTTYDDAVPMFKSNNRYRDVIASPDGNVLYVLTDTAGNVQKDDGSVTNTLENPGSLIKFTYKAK

Question: Does CAGGGGTGGGCAAAGGGCGGTGGTG (structured_DNA) [T-SO504] bind [1]?
Answer: Result: binds

Question: Does GCGTGTGGGGCTTGGGCAGCTGGG (structured_DNA) [T-SO552] bind [1]?
Answer: Result: binds

Question: Does CGAGGGGCGTCTGGGAGTGGTCGG (structured_DNA) [T-SO554] bind [1]?
Answer: Result: binds

Question: Does AAAAAGGGCAAAGGGAA (ssDNA) [504M2] bind (alpha-synuclein oligomer [2])?
Answer: Result: no binding

B1: 5T dimer (structured_DNA)
DNA: TTTTTGGTGCGGCGGGACTAGTGGGTGTGTTTTTGGTGCGGCGGGACTAGTGGGTGTG
Question: Does B1 bind [3]?
Answer: Result: binds

Question: What does the source list for GGGTCGGCTGTCCGTGGGTGGGGA (structured_DNA) [T-SO606]?
Answer: binding result (C-reactive protein (CRP)): no binding; binding result [4]: no binding; binding result [1]: binds

Question: How did the Kd ([5]; G4) turn out when TTTTTGGTGCGGCGGGACTAGTGGGTGTG (structured_DNA) [tT-SO530] was run?
Answer: The Kd was 9.03 nM.

B2: 504W (structured_DNA)
DNA: AAAAACAGGGGTGGGCAAAGGGCGGTGGTGTTTTTCAGGGGTGGGCAAAGGGCGGTGGTG
Question: Does B2 bind (alpha-synuclein oligomer [6])?
Answer: Result: binds

Question: Does TTTTTCAGGGGTGGGCAAAGGGCGGTGGTG (structured_DNA) [tT-SO504] bind (alpha-synuclein oligomer [7])?
Answer: Result: binds

Question: Does GCCTGTGGTGTTGGGGCGGGTGCG (structured_DNA) [T-SO508] bind [1]?
Answer: Result: binds

Question: Does AAAAAGGGTGGGCAAAGGGAA (ssDNA) [504M1] bind (alpha-synuclein oligomer [2])?
Answer: Result: no binding

B3: 10T dimer (structured_DNA)
DNA: TTTTTGGTGCGGCGGGACTAGTGGGTGTGTTTTTTTTTTGGTGCGGCGGGACTAGTGGGTGTG
Question: B3 was tested. Which Kd [5] did it give?
Answer: The Kd was 1.44 nM.

Question: Does GGTGCGGCGGGACTAGTGGGTGTG (structured_DNA) [T-SO530] bind [1]?
Answer: Result: binds

Question: Does GCGGTAGGGTGTGAGCGGAAGGGG (structured_DNA) [T-SO602] bind [1]?
Answer: Result: binds

Question: Does GGTGGCTGGAGGGGGCGCGAACG (structured_DNA) [T-SO517] bind (C-reactive protein (CRP))?
Answer: Result: no binding

Question: Does GGTGGCTGGAGGGGGCGCGAACG (structured_DNA) [T-SO517] bind [4]?
Answer: Result: no binding

Question: Does GGTGGCTGGAGGGGGCGCGAACG (structured_DNA) [T-SO517] bind [1]?
Answer: Result: binds
